Assay results taken from US20210379157A1 (UNIVERSITY OF ULSTER, published 2021).
Where no end group is shown, it is not given here. [ ]: non-standard residue; d: D form.

T1: GIP receptor (human, UniProt P48546 22-466)
T1 sequence (looked up): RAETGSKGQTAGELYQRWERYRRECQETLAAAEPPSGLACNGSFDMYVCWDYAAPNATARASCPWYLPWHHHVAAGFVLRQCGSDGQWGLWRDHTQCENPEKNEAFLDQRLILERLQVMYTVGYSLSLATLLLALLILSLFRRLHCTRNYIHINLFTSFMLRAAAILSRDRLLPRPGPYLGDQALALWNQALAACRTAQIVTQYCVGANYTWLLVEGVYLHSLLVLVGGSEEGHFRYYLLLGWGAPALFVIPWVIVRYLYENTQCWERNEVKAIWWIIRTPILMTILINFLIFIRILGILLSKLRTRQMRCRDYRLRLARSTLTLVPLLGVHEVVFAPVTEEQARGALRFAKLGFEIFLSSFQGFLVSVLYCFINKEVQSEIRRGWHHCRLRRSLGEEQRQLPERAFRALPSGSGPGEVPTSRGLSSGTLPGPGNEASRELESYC


Target: T1, GIP receptor
Test: cell-based or functional assay

| cAMP production in SaOS-2 cells, lowest effective concentration | Binder |
| --- | --- |
| 0.1 nM | Y[dA]EGTFISDYSIAMHPQQPWIL [(DAla2)GIP/xenin-8-Gln] |
| 10 nM | Y[dA]EGTFISDYSIAMHPQQPWILGAADDDDDD [(DAla2)GIP/xenin-8-Gln(L-Asp)] |
| 1000 nM | Y[dA]EGTFISDYSIAMHPQQPWILGAAEEEEEE [(DAla2)GIP/xenin-8-Gln(L-Glu)] |
